These are literature values, as cited in paper PMC3479961.

Holding throughout (experiment): surface plasmon resonance
The target of data set [1] is plasminogen (Homo sapiens) (UniProt P00747).
The target of data set [2] is tPA (Homo sapiens) (UniProt P00750).
Data set [3] addresses plasmin (Homo sapiens) (UniProt P00747).

Chain of UniProt P00750 (P00750 36-562): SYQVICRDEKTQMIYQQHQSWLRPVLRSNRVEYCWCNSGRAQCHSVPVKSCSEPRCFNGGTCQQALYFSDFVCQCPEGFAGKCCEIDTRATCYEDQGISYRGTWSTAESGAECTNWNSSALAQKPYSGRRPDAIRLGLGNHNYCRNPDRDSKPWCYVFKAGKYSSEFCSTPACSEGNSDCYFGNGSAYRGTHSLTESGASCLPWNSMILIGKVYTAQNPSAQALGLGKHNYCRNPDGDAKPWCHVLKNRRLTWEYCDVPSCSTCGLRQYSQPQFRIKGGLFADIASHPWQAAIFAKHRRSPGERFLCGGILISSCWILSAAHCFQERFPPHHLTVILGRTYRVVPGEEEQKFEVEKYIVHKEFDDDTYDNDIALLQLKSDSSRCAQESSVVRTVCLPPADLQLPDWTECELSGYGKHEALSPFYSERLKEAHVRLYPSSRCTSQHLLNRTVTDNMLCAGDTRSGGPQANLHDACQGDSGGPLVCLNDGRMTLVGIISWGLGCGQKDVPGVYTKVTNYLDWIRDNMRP

In the case of S100A10 (from UniProt P60903), the Kd in data set [1] is 1810 nM; in data set [2], 450 nM; in data set [3], 360 nM.
